Experiments:
[1] = test system: FLAG-tagged JNK1(Tyr-320-His) from the pCMV-FLAG vector, expressed in COS cells
[2] = test system: FLAG-tagged wild-type JNK1 from pCMV-FLAG-JNK1, expressed in COS cells
[3] = test system: FLAG-tagged JNK1(Arg-309-Trp) from the pCMV-FLAG vector, expressed in COS cells
[4] = test system: FLAG-tagged JNK1(Leu-131-Arg) from the pCMV-FLAG vector, expressed in COS cells
FLAG-tagged JNK1(Leu-131-Arg) from the pCMV-FLAG vector, expressed in COS cells, sequence (chain, as listed by the source L131R): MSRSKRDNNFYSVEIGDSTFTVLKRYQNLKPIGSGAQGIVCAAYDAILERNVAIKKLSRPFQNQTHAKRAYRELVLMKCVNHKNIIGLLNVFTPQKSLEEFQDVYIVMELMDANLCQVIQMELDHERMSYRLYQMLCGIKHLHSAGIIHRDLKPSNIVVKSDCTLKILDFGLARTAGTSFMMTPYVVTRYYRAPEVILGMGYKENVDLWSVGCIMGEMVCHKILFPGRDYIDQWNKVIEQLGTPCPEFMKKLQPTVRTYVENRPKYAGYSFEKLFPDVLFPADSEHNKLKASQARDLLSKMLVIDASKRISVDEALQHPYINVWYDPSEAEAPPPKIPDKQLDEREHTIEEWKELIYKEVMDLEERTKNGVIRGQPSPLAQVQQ

FLAG-tagged wild-type JNK1 from pCMV-FLAG-JNK1, expressed in COS cells, sequence (chain, as listed by the source): as the sequence (chain, as listed by the source L131R) above, with R131L counted along it
FLAG-tagged JNK1(Arg-309-Trp) from the pCMV-FLAG vector, expressed in COS cells, sequence (chain, as listed by the source R309W): as the sequence (chain, as listed by the source L131R) above, with R131L, R309W counted along it
FLAG-tagged JNK1(Tyr-320-His) from the pCMV-FLAG vector, expressed in COS cells, sequence (chain, as listed by the source Y320H): as the sequence (chain, as listed by the source L131R) above, with R131L, Y320H counted along it

Q: What does the source list for “GST-MKK4(ED), constitutively active form of MKK4”?
A: phosphorylation of immunoprecipitated FLAG-JNK by GST-MKK4(ED), in vitro kinase assay with [32P]ATP, autoradiography [1]: the negligible amount of radioactive phosphate incorporated into any of the three JNK mutants was not increased by the presence of active MKK4; phosphorylation of immunoprecipitated FLAG-JNK by GST-MKK4(ED), in vitro kinase assay with [32P]ATP, autoradiography [2]: The presence of active MKK4 increased the phosphorylation of wildtype JNK relative to the autophosphorylation that occurred in the absence of any upstream activator protein; phosphorylation of immunoprecipitated FLAG-JNK by GST-MKK4(ED), in vitro kinase assay with [32P]ATP, autoradiography [3]: the negligible amount of radioactive phosphate incorporated into any of the three JNK mutants was not increased by the presence of active MKK4; phosphorylation of immunoprecipitated FLAG-JNK by GST-MKK4(ED), in vitro kinase assay with [32P]ATP, autoradiography [4]: the negligible amount of radioactive phosphate incorporated into any of the three JNK mutants was not increased by the presence of active MKK4

Reference: patent US20080044815
